In patent US20220177587A1, “METHODS AND USES OF VARIANT CD80 FUSION PROTEINS AND RELATED CONSTRUCTS” (Alpine Immune Sciences, Inc., priority 2018, published 2022):
Numbering of substitutions follows the chain as printed. Numbers in names are those of the source.

B1: E35D/A71D: variant CD80 IgV-Fc, listed twice: IgV SEQ ID NO:176 (Table E1) and 194 (Table E2) (protein)
chain: VIHVTKEVKEVATLSCGHNVSVEELAQTRIYWQKDKKMVLTMMSGDMNIWPEYKNRTIFDITNNLSIVILDLRPSDEGTYECVVLKYEKDAFKREHLAEVTLSVKAD
B2: Q27H/M43I/A71D/R73S: variant CD80 IgV-Fc, IgV SEQ ID NO:183 (protein)
chain: B1 chain with Q27H, D35E, M43I, R73S
B3: Q27H/E35G/A71D/L72P/T791: variant CD80 IgV-Fc, IgV SEQ ID NO:196 (protein)
chain: B1 chain with Q27H, D35G, L72P, T79I
B4: E23D/M42V/M43I/I58V/L70R: variant CD80 IgV-Fc, IgV SEQ ID NO:209 (protein)
chain: B1 chain with E23D, D35E, M42V, M43I, I58V, L70R, D71A
B5: V68M/L70M/A71D/E95K: variant CD80 IgV-Fc, IgV SEQ ID NO:210 (protein)
chain: B1 chain with D35E, V68M, L70M, E95K
B6: M42I/I61V/A71D: variant CD80 IgV-Fc, IgV SEQ ID NO:187 (protein)
chain: B1 chain with D35E, M42I, I61V
B7: T13R/M42V/M47I/A71D: variant CD80 IgV-Fc, IgV SEQ ID NO:197 (protein)
chain: B1 chain with T13R, D35E, M42V, M47I
B8: E35D/I67L/A71D: variant CD80 IgV-Fc, IgV SEQ ID NO:195 (protein)
chain: B1 chain with I67L
B9: V22L/E35D/M43L/A71G/D76H: variant CD80 IgV-Fc, IgV SEQ ID NO:218 (protein)
chain: B1 chain with V22L, M43L, D71G, D76H
B10: S44P/A71D: variant CD80 IgV-Fc, IgV SEQ ID NO:182 (protein)
chain: B1 chain with D35E, S44P
B11: V22L/E35G/A71D/L72P: variant CD80 IgV-Fc, IgV SEQ ID NO:193 (protein)
chain: B1 chain with V22L, D35G, L72P
B12: E35D/A71D/L72V: variant CD80 IgV-Fc, IgV SEQ ID NO:200 (protein)
chain: B1 chain with L72V
B13: T41S/T57I/L70R: variant CD80 IgV-Fc, IgV SEQ ID NO:213 (protein)
chain: B1 chain with D35E, T41S, T57I, L70R, D71A
B14: M47V/I69F/A71D/V831: variant CD80 IgV-Fc, IgV SEQ ID NO:205 (protein)
chain: B1 chain with D35E, M47V, I69F, V83I
B15: V20I/M47V/A71D: variant CD80 IgV-Fc, IgV SEQ ID NO:191 (protein)
chain: B1 chain with V20I, D35E, M47V
B16: N55I/T57I/I69F: variant CD80 IgV-Fc, IgV SEQ ID NO:211 (protein)
chain: B1 chain with D35E, N55I, T57I, I69F, D71A
B17: E35D/M43I/A71D: variant CD80 IgV-Fc, IgV SEQ ID NO:212 (protein)
chain: B1 chain with M43I
B18: K36R/G78A: variant CD80 IgV-Fc, IgV SEQ ID NO:178 (protein)
chain: B1 chain with D35E, K36R, D71A, G78A
B19: V20I/M47V/I57I/V84I: variant CD80 IgV-Fc, IgV SEQ ID NO:190 (protein)
chain: B1 chain with V20I, D35E, M47V, T57I, D71A, V84I
B20: Q27L/E35D/M47I/T57I/L70Q/E88D: variant CD80 IgV-Fc, IgV SEQ ID NO:204 (protein)
chain: B1 chain with Q27L, M47I, T57I, L70Q, D71A, E88D
B21: M47L/V68A: variant CD80 IgV-Fc, IgV SEQ ID NO:181 (protein)
chain: B1 chain with D35E, M47L, V68A, D71A
B22: A12T/E24D/E35D/D46V/I61V/L72P/E95V: variant CD80 IgV-Fc, IgV SEQ ID NO:217 (protein)
chain: B1 chain with A12T, E24D, D46V, I61V, D71A, L72P, E95V
B23: L70Q/A71D: variant CD80 IgV-Fc, IgV SEQ ID NO:220 (protein)
chain: B1 chain with D35E, L70Q
B24: V20I/A71D: variant CD80 IgV-Fc, IgV SEQ ID NO:215 (protein)
chain: B1 chain with V20I, D35E
B25: M47I/E88D: variant CD80 IgV-Fc, IgV SEQ ID NO:186 (protein)
chain: B1 chain with D35E, M47I, D71A, E88D
B26: H18Y/A71D/L72P/E88V: variant CD80 IgV-Fc, IgV SEQ ID NO:214 (protein)
chain: B1 chain with H18Y, D35E, L72P, E88V
B27: H18Y/M47I/T57I/A71G: variant CD80 IgV-Fc, IgV SEQ ID NO:189 (protein)
chain: B1 chain with H18Y, D35E, M47I, T57I, D71G
B28: E35D/T57A/A71D/L85Q: variant CD80 IgV-Fc, IgV SEQ ID NO:206 (protein)
chain: B1 chain with T57A, L85Q
B29: E35D/I57I/L70Q/A71D: variant CD80 IgV-Fc, IgV SEQ ID NO:185 (protein)
chain: B1 chain with T57I, L70Q
B30: Q33E/T41A: variant CD80 IgV-Fc, IgV SEQ ID NO:179 (protein)
chain: B1 chain with Q33E, D35E, T41A, D71A
B31: A26P/E35D/M43I/L85Q/E88D: variant CD80 IgV-Fc, IgV SEQ ID NO:202 (protein)
chain: B1 chain with A26P, M43I, D71A, L85Q, E88D
B32: M47V/N48H: variant CD80 IgV-Fc, IgV SEQ ID NO:180 (protein)
chain: B1 chain with D35E, M47V, N48H, D71A

Target: CD28 (Homo sapiens, UniProt P10747)
Test: Jurkat/IL2 reporter assay: blockade of CD28 costimulation (plate-bound anti-CD3/CD86-Fc)
Type: cell-based
Parameters: host or cells: Jurkat cells expressing an IL-2-luciferase reporter
Settings: Table E5, protein diluted to 40 nM before mixing with cells, 5 hours
Method: The day before the assay, the assay plate was prepared. […] The plate was incubated overnight at 4° C. to allow the antibody and CD86-Fc protein to adhere to the surface of the plate. The next day, the wells of the assay plate were washed twice with 150 μL PBS prior to the assay.
Jurkat effector cells expressing IL-2-luciferase reporter were counted and resuspended in assay buffer to a concentration of 2×10^6 cells/mL. 60 μL of the Jurkat cell suspension were then added to the wells containing the CD80-Fc fusion molecules or controls. The cells and CD80 proteins were incubated at room temperature for 15 minutes and then 100 μL of the cell/CD80 protein mixture were transferred/well of the prepared anti-CD3/CD86-Fc assay plate.
The assay plate was briefly spun down (10 seconds at 1200 RPM) and incubated at 37° C. for 5 hours. After the 5 hour incubation, the plate was removed and equilibrated to room temperature for 15 minutes. 100 μL of Bio-Glo (Promega) were added/well of the assay plate, which was then placed on an orbital shaker for 10 minutes. Luminescence was measured with a 1 second per well integration time using a BioTek Cytation 3 luminometer.

Molecule	Average Relative Luminescence Units (SEQ ID NO 176)	Average Relative Luminescence Units
B1	1461 Relative Luminescence Units	–
B2	–	1891 Relative Luminescence Units
B3	–	2000 Relative Luminescence Units
B4	–	4460 Relative Luminescence Units
B5	–	2067 Relative Luminescence Units
B6	–	2549 Relative Luminescence Units
B7	–	759 Relative Luminescence Units
B8	–	1223 Relative Luminescence Units
B9	–	2004 Relative Luminescence Units
B10	–	2848 Relative Luminescence Units
B11	–	2334 Relative Luminescence Units
B12	–	1152 Relative Luminescence Units
B13	–	3641 Relative Luminescence Units
B14	–	290 Relative Luminescence Units
B15	–	360 Relative Luminescence Units
B16	–	1915 Relative Luminescence Units

Molecule	Average Relative Luminescence Units (SEQ ID NO 176)	Average Relative Luminescence Units
B17	–	3019 Relative Luminescence Units
B18	–	2597 Relative Luminescence Units
B19	–	1870 Relative Luminescence Units
B20	–	1180 Relative Luminescence Units
B21	–	5445 Relative Luminescence Units
B22	–	2408 Relative Luminescence Units
B23	–	1036 Relative Luminescence Units
B24	–	2165 Relative Luminescence Units
B25	–	2178 Relative Luminescence Units
B26	–	1354 Relative Luminescence Units
B27	–	924 Relative Luminescence Units
B28	–	3213 Relative Luminescence Units
B29	–	280 Relative Luminescence Units
B30	–	4220 Relative Luminescence Units
B31	–	4078 Relative Luminescence Units
B32	–	2656 Relative Luminescence Units
